Results published in US12679884 (University of Washington, dated 2026).

Legend:
GAL4-RpBphP1 = assay: cell-based or functional assay
[1] = target: the molecule itself; assay: analytical SEC of DrBphP alone, Superdex 200 Increase 10/300 GL
[2] = target: the molecule itself; assay: analytical SEC of LDB-3 alone at different injected amounts, Superdex 200 Increase 10/300 GL
[3] = target: the molecule itself; assay: analytical SEC of LDB-14 alone at different injected amounts, Superdex 200 Increase 10/300 GL

NLS-PpsR2-p65
light-induced luciferase expression over dark expression (mammalian two-hybrid, HEK293T, 775-nm light) (GAL4-RpBphP1): 2.95 fold

B1: DrBphP-His, light form (photosensory module of Deinococcus radiodurans bacteriophytochrome, biliverdin-bound, after 654-nm illumination) (other)
chain: MSRDPLPFFPPLYLGGPEITTENCEREPIHIPGSIQPHGALLTADGHSGEVLQMSLNAATFLGQEPTVLRGQTLAALLPEQWPALQAALPPGCPDALQYRATLDWPAAGHLSLTVHRVGELLILEFEPTEAWDSTGPHALRNAMFALESAPNLRALAEVATQTVRELTGFDRVMLYKFAPDATGEVIAEARREGLHAFLGHRFPASDIPAQARALYTRHLLRLTADTRAAAVPLDPVLNPQTNAPTPLGGAVLRATSPMHMQYLRNMGVGSSLSVSVVVGGQLWGLIACHHQTPYVLPPDLRTTLEYLGRLLSLQVQVKEAADVAAFRQSLREHHARVALAAAHSLSPHDTLSDPALDLLGLMRAGGLILRFEGRWQTLGEVPPAPAVDALLAWLETQPGALVQTDALGQLWPAGADLAPSAAGLLAISVGEGWSECLVWLRPELRLEVAWGGATPDQAKDDLGPRHSFDTYLEEKRGYAEPWHPGEIEEAQDLRDTLTGAL
modifications: biliverdin chromophore bound
notes: Same polypeptide as m2; differs only in the photoconverted state (654-nm light); Used in SEC, ITC, BLI and photoconversion assays; also called DrBphP light form
binding result [1]: binds

B2: DrBphP-His, dark form (photosensory module of Deinococcus radiodurans bacteriophytochrome, biliverdin-bound, after 775-nm illumination) (other)
chain: MSRDPLPFFPPLYLGGPEITTENCEREPIHIPGSIQPHGALLTADGHSGEVLQMSLNAATFLGQEPTVLRGQTLAALLPEQWPALQAALPPGCPDALQYRATLDWPAAGHLSLTVHRVGELLILEFEPTEAWDSTGPHALRNAMFALESAPNLRALAEVATQTVRELTGFDRVMLYKFAPDATGEVIAEARREGLHAFLGHRFPASDIPAQARALYTRHLLRLTADTRAAAVPLDPVLNPQTNAPTPLGGAVLRATSPMHMQYLRNMGVGSSLSVSVVVGGQLWGLIACHHQTPYVLPPDLRTTLEYLGRLLSLQVQVKEAADVAAFRQSLREHHARVALAAAHSLSPHDTLSDPALDLLGLMRAGGLILRFEGRWQTLGEVPPAPAVDALLAWLETQPGALVQTDALGQLWPAGADLAPSAAGLLAISVGEGWSECLVWLRPELRLEVAWGGATPDQAKDDLGPRHSFDTYLEEKRGYAEPWHPGEIEEAQDLRDTLTGAL
modifications: biliverdin chromophore bound
notes: Same polypeptide as m1; differs only in the photoconverted state (775-nm light); also called DrBphP dark form
binding result [1]: binds

B3: LDB-3-His (VHH, not shown: small tags and cut ends)
VHH: EVQLQASGGGFVQPGGSLRLSCAASGFTWDHYIMGWFRQAPGKEREFVSAISENGDAWNYYADSVKGRFTISRDNSKNTVYLQMNSLRAEDTATYYCAIGFDVPSGRSWQGSHFWMYWGQGTQVTVSS
notes: Synthetic nanobody, expressed in E. coli WK6; used in SEC, ITC and photoconversion assays; SEC: mixture of monomer and dimer
binding result [2]: binds

B4: LDB-14-His (VHH, not shown: small tags and cut ends)
VHH: EVQLQASGGGFVQPGGSLRLSCAASGTTSRWESMGWFRQAPGKEREFVSAISWQNNSVPYYADSVKGRFTISRDNSKNTVYLQMNSLRAEDTATYYCAAQHNFLGHRYWGQGTQVTVSS
notes: Synthetic nanobody, expressed in E. coli WK6; used in SEC, ITC and photoconversion assays; SEC: mainly monomer
binding result [3]: binds
